Data: publication PMC9482650, “Quantitative fragmentomics allow affinity mapping of interactomes” (Nature Communications, 2022)

Tests used:
Experiment in all cases: holdup assay
Set-up in all cases: key: below the threshold = too weak to quantify, mostly under pKd 3.1 to 4
Conditions in all cases: plain residues with an end cap or a label only (N-terminal biotin on a linker: ado-ado)
GRIP2_6, Q9C0E4 = target: GRIP2_6, Q9C0E4
Inadl_4, Q8NI35 = target: Inadl_4, Q8NI35
LRRC7, Q96NW7 = target: T1, LRRC7, Q96NW7
T1 sequence (Q96NW7 1440-1537, limits assumed, looked up): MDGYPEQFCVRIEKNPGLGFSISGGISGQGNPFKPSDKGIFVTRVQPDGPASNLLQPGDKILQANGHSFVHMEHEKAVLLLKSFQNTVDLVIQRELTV

DFNB31_2, Q9P202 = target: T2, DFNB31_2, Q9P202
T2 sequence (Q9P202 274-371, limits assumed, looked up): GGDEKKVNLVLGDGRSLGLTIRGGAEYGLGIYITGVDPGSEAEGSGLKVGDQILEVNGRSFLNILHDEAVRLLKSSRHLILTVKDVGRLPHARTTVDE

MAGI2_3, Q86UL8 = target: MAGI2_3, Q86UL8
MAGI2_3, Q86UL8, sequence (Q86UL8 600-682): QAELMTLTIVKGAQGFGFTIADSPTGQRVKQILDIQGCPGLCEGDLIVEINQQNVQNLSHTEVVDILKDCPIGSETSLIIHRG

RAPGEF6, Q8TEU7 = target: T3, RAPGEF6, Q8TEU7
T3 sequence (Q8TEU7 525-625, limits assumed, looked up): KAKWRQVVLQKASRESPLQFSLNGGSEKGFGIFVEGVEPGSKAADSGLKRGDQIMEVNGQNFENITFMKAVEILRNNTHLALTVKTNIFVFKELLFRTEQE

MPP7, Q5T2T1 = target: T4, MPP7, Q5T2T1
T4 sequence (Q5T2T1 134-230, limits assumed, looked up): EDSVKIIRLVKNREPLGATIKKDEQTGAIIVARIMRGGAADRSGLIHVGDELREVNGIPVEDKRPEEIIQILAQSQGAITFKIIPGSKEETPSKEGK

MAGI3_2, Q5TCQ9 = target: MAGI3_2, Q5TCQ9
MAGI3_2, Q5TCQ9, sequence (Q5TCQ9 398-503): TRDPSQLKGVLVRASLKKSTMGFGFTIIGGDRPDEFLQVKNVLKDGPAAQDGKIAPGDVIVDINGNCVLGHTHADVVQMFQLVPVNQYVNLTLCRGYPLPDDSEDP

RADIL, Q96JH8 = target: T5, RADIL, Q96JH8
T5 sequence (Q96JH8 971-1071, limits assumed, looked up): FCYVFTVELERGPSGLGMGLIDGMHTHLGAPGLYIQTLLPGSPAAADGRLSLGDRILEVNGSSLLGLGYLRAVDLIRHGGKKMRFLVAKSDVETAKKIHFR

MAGI2_5, Q86UL8 = target: MAGI2_5, Q86UL8
MAGI2_5, Q86UL8, sequence (Q86UL8 915-1017): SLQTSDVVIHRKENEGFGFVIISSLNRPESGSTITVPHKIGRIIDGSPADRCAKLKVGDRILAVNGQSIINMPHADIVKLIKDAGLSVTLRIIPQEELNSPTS

HTRA2, O43464 = target: HTRA2, O43464
HTRA2, O43464, sequence (O43464 355-458): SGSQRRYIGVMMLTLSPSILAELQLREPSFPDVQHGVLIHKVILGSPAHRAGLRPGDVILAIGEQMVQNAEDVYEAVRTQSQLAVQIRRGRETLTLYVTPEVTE

MPP6, Q9NZW5 = target: T6, MPP6, Q9NZW5
T6 sequence (Q9NZW5 125-219, limits assumed, looked up): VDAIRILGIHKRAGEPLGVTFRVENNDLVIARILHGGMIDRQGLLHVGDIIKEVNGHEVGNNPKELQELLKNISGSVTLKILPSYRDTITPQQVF

IL16_1, Q14005 = target: IL16_1, Q14005
IL16_1, Q14005, sequence (Q14005 210-306): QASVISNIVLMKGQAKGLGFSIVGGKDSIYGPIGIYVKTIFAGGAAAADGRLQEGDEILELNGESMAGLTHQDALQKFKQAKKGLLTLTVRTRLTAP

GRIP1_2, Q9Y3R0 = target: T7, GRIP1_2, Q9Y3R0
T7 sequence (Q9Y3R0 145-248, limits assumed, looked up): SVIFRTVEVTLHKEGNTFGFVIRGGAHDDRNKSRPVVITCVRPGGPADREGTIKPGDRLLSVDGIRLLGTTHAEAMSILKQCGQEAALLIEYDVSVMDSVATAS

LDB3, O75112 = target: LDB3, O75112
LDB3, O75112, sequence (O75112 1-94): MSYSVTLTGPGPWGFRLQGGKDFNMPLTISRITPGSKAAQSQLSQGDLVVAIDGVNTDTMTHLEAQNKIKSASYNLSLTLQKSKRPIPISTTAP

MAST1, Q9Y2H9 = target: MAST1, Q9Y2H9
MAST1, Q9Y2H9, sequence (Q9Y2H9 962-1065): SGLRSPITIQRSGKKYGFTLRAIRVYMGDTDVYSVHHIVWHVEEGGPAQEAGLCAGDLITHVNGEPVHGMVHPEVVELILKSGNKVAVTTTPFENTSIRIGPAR

FRMPD4, Q14CM0 = target: FRMPD4, Q14CM0
FRMPD4, Q14CM0, sequence (Q14CM0 67-160): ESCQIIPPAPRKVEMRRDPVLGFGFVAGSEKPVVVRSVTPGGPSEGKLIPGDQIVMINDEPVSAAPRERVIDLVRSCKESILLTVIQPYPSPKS

PDZRN4_1, Q6ZMN7 = target: PDZRN4_1, Q6ZMN7
PDZRN4_1, Q6ZMN7, sequence (Q6ZMN7 213-318): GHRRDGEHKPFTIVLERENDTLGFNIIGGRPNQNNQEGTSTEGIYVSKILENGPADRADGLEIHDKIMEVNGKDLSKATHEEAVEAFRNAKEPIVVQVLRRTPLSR

GIPC2, Q8TF65 = target: GIPC2, Q8TF65
GIPC2, Q8TF65, sequence (Q8TF65 112-203): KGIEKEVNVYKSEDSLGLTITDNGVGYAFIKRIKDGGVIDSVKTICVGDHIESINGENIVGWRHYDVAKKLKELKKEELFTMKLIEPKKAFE

PTPN3, P26045 = target: PTPN3, P26045
PTPN3, P26045, sequence (P26045 505-587): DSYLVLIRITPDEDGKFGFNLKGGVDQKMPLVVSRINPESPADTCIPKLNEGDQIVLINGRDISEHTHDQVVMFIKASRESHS

MPDZ_5, O75970 = target: T8, MPDZ_5, O75970
T8 sequence (O75970 695-796, limits assumed, looked up): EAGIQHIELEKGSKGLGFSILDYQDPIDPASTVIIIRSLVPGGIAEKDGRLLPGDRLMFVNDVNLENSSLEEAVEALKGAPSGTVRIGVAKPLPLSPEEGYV

DLG4_3, P78352 = target: DLG4_3, P78352
DLG4_3, P78352, sequence (P78352 306-403): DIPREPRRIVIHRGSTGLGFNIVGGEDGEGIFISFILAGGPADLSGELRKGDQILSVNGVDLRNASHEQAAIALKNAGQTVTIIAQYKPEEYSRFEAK

CASK, O14936 = target: CASK, O14936
CASK, O14936, sequence (O14936 487-570): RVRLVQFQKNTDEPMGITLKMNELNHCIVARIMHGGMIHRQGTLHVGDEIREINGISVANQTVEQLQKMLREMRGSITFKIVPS

MPDZ_10, O75970 = target: T9, MPDZ_10, O75970
T9 sequence (O75970 1624-1722, limits assumed, looked up): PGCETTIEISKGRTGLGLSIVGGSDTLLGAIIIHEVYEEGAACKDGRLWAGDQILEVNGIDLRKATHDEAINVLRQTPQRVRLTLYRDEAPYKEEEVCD

GRIP1_7, Q9Y3R0 = target: T10, GRIP1_7, Q9Y3R0
T10 sequence (Q9Y3R0 999-1096, limits assumed, looked up): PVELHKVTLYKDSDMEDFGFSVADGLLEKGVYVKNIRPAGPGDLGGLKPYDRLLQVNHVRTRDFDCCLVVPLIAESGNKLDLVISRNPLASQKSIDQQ

Inadl_2, Q8NI35 = target: Inadl_2, Q8NI35
Inadl_2, Q8NI35, sequence (Q8NI35 238-335): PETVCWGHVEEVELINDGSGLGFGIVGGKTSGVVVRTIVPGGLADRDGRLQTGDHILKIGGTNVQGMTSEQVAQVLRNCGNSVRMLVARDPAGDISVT

FRMPD2_3, Q68DX3 = target: FRMPD2_3, Q68DX3
FRMPD2_3, Q68DX3, sequence (Q68DX3 1073-1166): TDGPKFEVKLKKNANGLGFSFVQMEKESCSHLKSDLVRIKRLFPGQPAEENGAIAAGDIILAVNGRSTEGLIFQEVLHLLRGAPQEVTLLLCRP

NHERF4_1, Q86UT5-2 = target: NHERF4_1, Q86UT5-2
NHERF4_1, Q86UT5-2, sequence (Q86UT5 other isoform, or with tags, fused parts or gaps): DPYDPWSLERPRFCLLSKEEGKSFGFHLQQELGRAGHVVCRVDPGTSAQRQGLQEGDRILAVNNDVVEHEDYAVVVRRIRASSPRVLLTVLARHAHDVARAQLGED

Inadl_4, Q8NI35, sequence (Q8NI35 547-651): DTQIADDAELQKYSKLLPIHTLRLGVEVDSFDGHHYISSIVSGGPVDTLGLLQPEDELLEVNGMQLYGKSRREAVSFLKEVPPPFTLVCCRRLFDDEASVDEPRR
GRIP2_6, Q9C0E4, sequence (Q9C0E4 648-740): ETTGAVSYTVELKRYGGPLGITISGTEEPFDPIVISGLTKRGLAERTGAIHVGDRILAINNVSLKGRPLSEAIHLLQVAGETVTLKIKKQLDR

Binder: FHSIKQSTAV [CRHR1, P34998]
- pKd (GRIP2_6, Q9C0E4): below the threshold
- pKd (Inadl_4, Q8NI35): below the threshold
- pKd (LRRC7, Q96NW7): 3.49
- pKd (DFNB31_2, Q9P202): below the threshold
- pKd (MAGI2_3, Q86UL8): 3.61
- pKd (RAPGEF6, Q8TEU7): below the threshold
- pKd (MPP7, Q5T2T1): below the threshold
- pKd (MAGI3_2, Q5TCQ9): 5.01
- pKd (RADIL, Q96JH8): below the threshold
- pKd (MAGI2_5, Q86UL8): 4.38
- pKd (HTRA2, O43464): below the threshold
- pKd (MPP6, Q9NZW5): 3.7
- pKd (IL16_1, Q14005): below the threshold
- pKd (GRIP1_2, Q9Y3R0): below the threshold
- pKd (LDB3, O75112): below the threshold
- pKd (MAST1, Q9Y2H9): 4.74
- pKd (FRMPD4, Q14CM0): below the threshold
- pKd (PDZRN4_1, Q6ZMN7): 4.1
- pKd (GIPC2, Q8TF65): below the threshold
- pKd (PTPN3, P26045): 4.6
- pKd (MPDZ_5, O75970): below the threshold
- pKd (DLG4_3, P78352): 4.43
- pKd (CASK, O14936): below the threshold
- pKd (MPDZ_10, O75970): below the threshold
- pKd (GRIP1_7, Q9Y3R0): below the threshold
- pKd (Inadl_2, Q8NI35): below the threshold
- pKd (FRMPD2_3, Q68DX3): below the threshold
- pKd (NHERF4_1, Q86UT5-2): 3.81
